Literature values, collected in article PMC2930029.
Like-named read-outs stand apart in the source and are kept apart here.

Key:
[1] = molecular target: C3b C3b (Homo sapiens) (UniProt P01024)
[2] = molecular target: C3b C3b (Homo sapiens) (UniProt P01024); assay: SPR

Chain of C3b C3b (Homo sapiens) (P01024 566-670): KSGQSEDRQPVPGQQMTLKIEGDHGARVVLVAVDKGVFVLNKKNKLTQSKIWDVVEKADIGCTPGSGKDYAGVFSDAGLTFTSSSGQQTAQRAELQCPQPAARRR
Chain of Efb (P68799 30-165): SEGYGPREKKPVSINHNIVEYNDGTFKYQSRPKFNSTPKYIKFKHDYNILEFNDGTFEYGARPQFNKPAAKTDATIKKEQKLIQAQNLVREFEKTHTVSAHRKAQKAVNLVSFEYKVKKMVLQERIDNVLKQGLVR
Chain of SCIN (A7X482 32-116): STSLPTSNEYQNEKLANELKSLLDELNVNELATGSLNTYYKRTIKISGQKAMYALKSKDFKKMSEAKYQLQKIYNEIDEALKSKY
Chain of Factor H fH(1-4) (P08603 19-264): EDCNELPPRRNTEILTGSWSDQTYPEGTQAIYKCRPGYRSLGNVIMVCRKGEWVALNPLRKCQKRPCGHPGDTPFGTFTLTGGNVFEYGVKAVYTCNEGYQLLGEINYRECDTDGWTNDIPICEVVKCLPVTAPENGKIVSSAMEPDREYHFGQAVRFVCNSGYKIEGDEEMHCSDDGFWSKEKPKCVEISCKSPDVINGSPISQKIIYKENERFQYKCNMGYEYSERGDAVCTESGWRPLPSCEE

Factor H fH(1-4) (from UniProt P08603)
Kd [1]: 11 µM

SCIN (from UniProt A7X482)
Kd [2]: 180 nM

Efb (from UniProt P68799)
Kd [2]: 10 nM
